Source: the supplement of paper PMC9170038

Assays:
[1] = system: MS2 coat protein; assay: apparent KD of MS2 coat protein, switch ON state; designed switch direction (-1 OFF switch, 1 ON switch): -1; higher = weaker reporter binding; conditions: FMN input: 0 or 200 uM; Eterna round: R93 (includes R88 designs)
Procedure, shortened: (§1)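 Apparent KD per design is the median of normalised cluster binding-curve fits. Designed RNA switches transcribed on-chip from Illumina sequencing clusters were titrated with SNAP-549-labelled MS2 coat protein in twofold steps from 0.7 or 1.5 nM to 3 µM, with 0.8–1.5 h down to 10–20 min per step. Buffer: 100 mM Tris-HCl pH 7.5, 80 mM KCl, 4 mM MgCl2, without or with constant ligand.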

[2] = system: MS2 coat protein; assay: apparent KD of MS2 coat protein, switch OFF state (with FMN for OFF switches, without FMN for ON switches); designed switch direction (-1 OFF switch, 1 ON switch): -1; higher = weaker reporter binding; conditions: FMN input: 0 or 200 uM; Eterna round: R93 (includes R88 designs)
Procedure, shortened: as §1

AAAAAAAGAGGAUAUACAUGAAAAAUAAAAAUGUAAAAAAAACAUGAGGAUCACCCAUGUAGAAGGCUUAAAAA [Ecx-I 62% 1]
apparent KD of MS2 coat protein [1]: 0.0246 µM | apparent KD of MS2 coat protein [2]: 0.0259 µM

AAAAAACAUGAGGAUCACCCAUGUAAGGAUAUCGUGCAGAAAAAAAAAAAAAACUGCACGAGAAGGUACAAGGA [Brourd - Exclusion 1 - Sub 1]
apparent KD of MS2 coat protein [1]: 0.0361 µM | apparent KD of MS2 coat protein [2]: 0.0627 µM

AAAAAACAUGAGGAUCACCCAUGUAAGGAUAUCUAAAAUAAAAGAAAAAUAAAGAAAAGGAGAAGGUACAUGCA [JL wbt mod 26]
apparent KD of MS2 coat protein [1]: 0.032 µM | apparent KD of MS2 coat protein [2]: 0.0345 µM

AAAAAACAUGAGGAUCACCCAUGUAAGGAUAUCUAAAAUAAAAGAAAAAUAAAGAAAAGGAGAAGGUACAUGGA [JL wbt mod 22]
apparent KD of MS2 coat protein [1]: 0.0229 µM | apparent KD of MS2 coat protein [2]: 0.0156 µM

AAAAAACAUGAGGAUCACCCAUGUAAGGAUAUGACUUAAAUAAAGAAAGAAGAAAUAGUCAGAAGGUACAAAUA [Disincluded (MS2 Riboswitches - States energetically close)]
apparent KD of MS2 coat protein [1]: 0.0204 µM | apparent KD of MS2 coat protein [2]: 0.031 µM

AAAAAACAUGAGGAUCACCCAUGUAAGGAUAUGCAAAAAAUGGGUAAAAGGGUAAAAAGCAGAAGGUACAAAAA [scarecrow1]
apparent KD of MS2 coat protein [1]: 0.156 µM | apparent KD of MS2 coat protein [2]: 0.0921 µM

AAAAAACAUGAGGAUCACCCAUGUAAGGAUAUGCAAAAUAAAAGAAAUAAAAAGGAAAGCAGAAGGUACAUGAA [JL wbt mod 8]
apparent KD of MS2 coat protein [1]: 0.0219 µM | apparent KD of MS2 coat protein [2]: 0.0425 µM

AAAAAACAUGAGGAUCACCCAUGUAAGGAUAUGCAGAUUAUAAGAAAAAAAAAAAAAAGCAGAAGGUACAAAAA [Default title]
apparent KD of MS2 coat protein [1]: 0.0374 µM | apparent KD of MS2 coat protein [2]: 0.0282 µM

AAAAAACAUGAGGAUCACCCAUGUAAGGAUAUGCUCGGGCGAAAAAGCAAAAAAAAGAGCAGAAGGUACAAAAA [66%, Wbt, 42]
apparent KD of MS2 coat protein [1]: 0.0205 µM | apparent KD of MS2 coat protein [2]: 0.0387 µM

AAAAAACAUGAGGAUCACCCAUGUAAGGAUAUGCUGGUGCGAAAGCACAAAAAAAACAGCAGAAGGUACAAAAA [66%, Wbt, 37]
apparent KD of MS2 coat protein [1]: 0.0174 µM | apparent KD of MS2 coat protein [2]: 0.0275 µM

AAAAAACAUGAGGAUCACCCAUGUAAGGAUAUGUGAAAAAAAAAAUAAAAAAAAAAAAGCAGAAGGUACAAAAA [LROPPY Exclusion 1 - v01_deltaG=3.64]
apparent KD of MS2 coat protein [1]: 0.0665 µM | apparent KD of MS2 coat protein [2]: 0.0748 µM

AAAAAACAUGAGGAUCACCCAUGUCAGGAUAUACGAUAAAAAAAAAAAAAAAAAAAAUGUAGAAGGGACAAAAA [Simple 1]
apparent KD of MS2 coat protein [1]: 0.0603 µM | apparent KD of MS2 coat protein [2]: 0.0608 µM

AAAAAACAUGAGGAUCACCCAUGUCAGGAUAUCCGAAAAAAAAAAAAAAAAAGGCCUUGGAGAAGGGACAUUCC [Chica Displaced 7- Jieux - Exclusion 1]
apparent KD of MS2 coat protein [1]: 0.0537 µM | apparent KD of MS2 coat protein [2]: 0.0575 µM

AAAAAACAUGAGGAUCACCCAUGUCAGGAUAUCCGGAAAAAAAAAAAAAAAAGGCGUUGGAGAAGGGACAUUCC [Chica Displaced 8 - Jieux - Exclusion 1]
apparent KD of MS2 coat protein [1]: 0.0287 µM | apparent KD of MS2 coat protein [2]: 0.0368 µM

AAAAAACAUGAGGAUCACCCAUGUCAGGAUAUCCGGUUCUUAAAAAAAAAAAGGCGUUGGAGAAGGGACAUUCC [Chica Displaced 11 - Jieux - Exclusion 1]
apparent KD of MS2 coat protein [1]: 0.0289 µM | apparent KD of MS2 coat protein [2]: 0.038 µM

AAAAAACAUGAGGAUCACCCAUGUCAGGAUAUCUGUAUAAAUAAAAAAAUAAAAAUACAGAGAAGGGACAAAAA [Ex1: 608]
apparent KD of MS2 coat protein [1]: 0.0505 µM | apparent KD of MS2 coat protein [2]: 0.0517 µM

AAAAAACAUGAGGAUCACCCAUGUGAGGAUAUACAAAACCCAUAUAAAAAGGGAAAAAGUAGAAGGCGCAAAAA [wbt round 1 mod 8]
apparent KD of MS2 coat protein [1]: 0.0208 µM | apparent KD of MS2 coat protein [2]: 0.0243 µM
